From PMC6201590, “Fibronectin type III domain-containing protein 5 interacts with APP and decreases amyloid β production in Alzheimer’s disease” (Molecular Brain, 2018)

Target: full-length APP770 tagged with V5 (UniProt P05067-1 18-770)
Assay: cell-based or functional assay

full-length APP770 tagged with V5, sequence (P05067 18-770): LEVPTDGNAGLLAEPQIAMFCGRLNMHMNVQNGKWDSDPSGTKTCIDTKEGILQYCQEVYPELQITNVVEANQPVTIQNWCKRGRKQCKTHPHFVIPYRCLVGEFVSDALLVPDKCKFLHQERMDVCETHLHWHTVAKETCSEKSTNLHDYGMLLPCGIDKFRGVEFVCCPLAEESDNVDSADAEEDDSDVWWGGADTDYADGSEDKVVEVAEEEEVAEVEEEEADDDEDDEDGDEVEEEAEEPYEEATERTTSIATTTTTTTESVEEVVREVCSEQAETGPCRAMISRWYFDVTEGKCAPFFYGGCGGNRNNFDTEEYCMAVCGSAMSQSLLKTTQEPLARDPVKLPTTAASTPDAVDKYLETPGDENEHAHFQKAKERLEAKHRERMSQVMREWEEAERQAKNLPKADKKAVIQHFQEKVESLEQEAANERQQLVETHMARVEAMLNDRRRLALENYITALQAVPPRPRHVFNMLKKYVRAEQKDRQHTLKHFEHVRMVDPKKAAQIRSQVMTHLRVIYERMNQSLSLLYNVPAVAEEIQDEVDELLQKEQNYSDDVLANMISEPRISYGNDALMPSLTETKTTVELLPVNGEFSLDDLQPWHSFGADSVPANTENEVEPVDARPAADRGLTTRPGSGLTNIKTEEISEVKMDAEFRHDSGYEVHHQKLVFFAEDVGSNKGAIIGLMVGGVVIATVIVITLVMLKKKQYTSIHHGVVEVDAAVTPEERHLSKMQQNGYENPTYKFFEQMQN

B1: Fibronectin type III domain-containing protein 5 tagged with HA at the C-terminus (natural protein, mouse, UniProt Q8K4Z2 60-240, looked up)
chain: DSPSAPVNVTVRHLKANSAVVSWDVLEDEVVIGFAISQQKKDVRMLRFIQEVNTTTRSCALWDLEEDTEYIVHVQAISIQGQSPASEPVLFKTPREAEKMASKNKDEVTMKEMGRNQQLRTGEVLIIVVVLFMWAGVIALFCRQYDIIKDNEPNNNKEKTKSASETSTPEHQGGGLLRSKI
Aβ40 and Aβ42 secreted into the medium (ELISA) of HEK293 cells transfected with APP770-V5 and FNDC5-HA, with Aβ1–16 peptide treatment against without it: ~1.4 fold
